Assay results as given in paper PMC10206189 (2023).

T1: mouse Plexin-B1 (20–535)-6xHis (mouse, UniProt Q8CJH3 20-535)
T1 chain: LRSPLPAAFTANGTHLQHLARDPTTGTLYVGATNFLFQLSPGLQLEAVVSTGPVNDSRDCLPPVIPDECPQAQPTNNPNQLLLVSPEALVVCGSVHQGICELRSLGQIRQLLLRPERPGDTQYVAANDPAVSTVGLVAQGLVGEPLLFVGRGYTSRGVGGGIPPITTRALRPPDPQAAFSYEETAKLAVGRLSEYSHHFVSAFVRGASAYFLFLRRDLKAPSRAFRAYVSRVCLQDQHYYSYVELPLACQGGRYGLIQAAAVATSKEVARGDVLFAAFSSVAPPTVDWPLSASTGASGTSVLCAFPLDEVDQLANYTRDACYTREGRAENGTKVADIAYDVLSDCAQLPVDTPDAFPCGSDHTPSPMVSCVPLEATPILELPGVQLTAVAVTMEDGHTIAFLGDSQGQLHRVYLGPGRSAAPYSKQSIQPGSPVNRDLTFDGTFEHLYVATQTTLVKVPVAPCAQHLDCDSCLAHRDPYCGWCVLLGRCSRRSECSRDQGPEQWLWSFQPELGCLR


Target: T1, mouse Plexin-B1 (20–535)-6xHis
Assay: BLI

koff [s⁻¹]	Binder
1.66e-05	VHH14-Fc (Fc fusion) QVQLQESGGGLVQAGGSLRLSCAASGFTLGYYAIGWFRQAPGKEREEVSCINASGGSTFYEDSVKGRFTISRDNAKNTVFLQMNRLKPEDTAVYYCAAACEVVAVGYWGQGTQVTVSA
0.002	VHH15-Fc (Fc fusion) QVQLQESGGGLVQPGGSLRLSCAASGFRLDYYAIGWFRQAPGKEREGVLCISSSGGSINYADSVKGRFTISRDNAKNTVYLQMNSLKPEDTAVYYCGASSYNTQRAECYGMDYWGKGTQVTVSA
